Assay results published in US20220363757A1 (SYMPHOGEN A S, published 2022).
Numbering of substitutions follows the chain as printed. Each block holds one binder with its values, some of them ahead of it.

How the values were obtained:
Assay in all cases: SPR, Fab over captured mutant LAG-3-Fc;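 further: LAG-3 fusion proteins captured on an anti-human IgG Fc sensor chip and read on an IBIS MX96 biosensor, Fab association and dissociation each 15 min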
[1] = biological target: T1, human LAG-3 domain 1-2 Fc fusion, chimeric construct #15 (mutated region AA 95-100) (human, UniProt P18627 23-266)
T1 construct: not shown: human IgG1 Fc, AA P101-K330
T1 chain: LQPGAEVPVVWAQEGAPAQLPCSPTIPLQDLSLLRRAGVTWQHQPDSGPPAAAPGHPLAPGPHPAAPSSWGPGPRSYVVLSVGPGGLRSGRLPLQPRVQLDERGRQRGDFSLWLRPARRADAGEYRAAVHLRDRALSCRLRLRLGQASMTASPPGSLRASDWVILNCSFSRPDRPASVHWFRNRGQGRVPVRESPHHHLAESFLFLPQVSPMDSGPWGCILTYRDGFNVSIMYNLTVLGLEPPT

[2] = biological target: T2, human LAG-3 domain 1-2 Fc fusion, chimeric construct #7 (mutated region AA 53-60) (human, UniProt P18627 23-266)
T2 construct: not shown: human IgG1 Fc, AA P101-K330
T2 chain: T1 chain with L31P, S32N, L33F, A37G, G38W, G73R, S76R, V78T

[3] = biological target: T3, human LAG-3 domain 1-2 Fc fusion, chimeric construct #1 (mutated region AA 23-30) (human, UniProt P18627 31-266)
T3 construct: not shown: human IgG1 Fc, AA P101-K330
T3 sequence: T1 chain with L1S, Q2G, A5K, V7L, P8S, G73R, S76R, V78T

[4] = biological target: T4, human LAG-3 domain 1-2 Fc fusion, chimeric construct #24 (mutated region AA 148-154) (human, UniProt P18627 23-266)
T4 construct: not shown: human IgG1 Fc, AA P101-K330
T4 chain: T1 chain with G73R, S76R, V78T, R126H, A128F, H130R, R132P

[5] = biological target: T5, human LAG-3 domain 1-2 Fc fusion, chimeric construct #6 (mutated region AA 48-55) (human, UniProt P18627 23-266)
T5 construct: not shown: human IgG1 Fc, AA P101-K330
T5 chain: T1 chain with I26F, L28H, Q29L, L31P, S32N, L33F, G73R, S76R, V78T

[6] = biological target: T6, human LAG-3 domain 1-2 Fc fusion, chimeric construct #19 (mutated region AA 118-127) (human, UniProt P18627 23-266)
T6 construct: not shown: human IgG1 Fc, AA P101-K330
T6 chain: T1 chain with G73R, S76R, V78T, P96S, R97H, D101E, E102K, R105P

[7] = biological target: T7, human LAG-3 domain 1-2 Fc fusion, chimeric construct #16 (mutated region AA 98-105) (human, UniProt P18627 23-266)
T7 construct: not shown: human IgG1 Fc, AA P101-K330
T7 chain: T1 chain with G73R, S81M, V82R, G83A

[8] = biological target: T8, human LAG-3 domain 1-2 Fc fusion, chimeric construct #8 (mutated region AA 59-66) (human, UniProt P18627 23-266)
T8 construct: not shown: human IgG1 Fc, AA P101-K330
T8 chain: T1 chain with A37G, G38W, Q44R, G73R, S76R, V78T

[9] = biological target: T9, human LAG-3 domain 1-2 Fc fusion, chimeric construct #17 (mutated region AA 114-117) (human, UniProt P18627 23-266)
T9 construct: not shown: human IgG1 Fc, AA P101-K330
T9 chain: T1 chain with G73R, S76R, V78T, L92Q, Q95L

B1: Fab fragment of antibody 15532 (Fab, V domains shown, not shown: a dimerising Fc or GST)
VH: QVQLQQWGAGLLRPSETLSLTCAVYGESFSGYYWNWIRQPPGKGLEWIGEINHSGSTNYNPSLKSRVTISVDTSKTQFSLKLSSVTAADTAVYYCARGWDLLDWNDYWNEYWGQGTLVTVSS
VL: EIVLTQSPATLSLSPGERATLSCRASQSVSSYLAWYQQKPGQAPRLLIYDASNRATGIPARFSGSGSGTDFTLTISSLEPEDFAVYYCQQRSNWPLTFGGGTKVEIKR
notes: monomeric Fab made by GingisKHAN digestion of the IgG1
- KD mutant/KD wild type [1]: 6.5 fold
- KD mutant/KD wild type [2]: 3.4 fold
- KD mutant/KD wild type [3]: 3.2 fold
- KD mutant/KD wild type [4]: 2.6 fold
- KD mutant/KD wild type [5]: 3.4 fold
- KD mutant/KD wild type [6]: 0.5 fold
- KD mutant/KD wild type [7]: 6.3 fold
- KD mutant/KD wild type [8]: 2.7 fold
- KD mutant/KD wild type [9]: 1.4 fold

B4: Fab fragment of antibody 15572 (Fab, V domains shown, not shown: a dimerising Fc or GST)
VH: QLQLQESGPGLVKPSETLSLTCTVSGDSISSSSYYWGWIRQPPGKGLEWIGSIFYSGNTYYNPSLKSRVTISVDTSKNQFSLKLSSVTAADTAVYYCAREDDFLTDYYGAFDIWGQGTMVTVSS
VL: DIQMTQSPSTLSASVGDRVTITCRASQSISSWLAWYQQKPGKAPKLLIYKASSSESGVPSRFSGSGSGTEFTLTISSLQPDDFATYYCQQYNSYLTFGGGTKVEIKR
notes: as for B1
- KD mutant/KD wild type [1]: 3.1 fold
- binding result [2]: no binding (tested: 300 nM)
- binding result [3]: no binding (tested: 300 nM)
- binding result [4]: no binding (tested: 300 nM)
- binding result [5]: no binding (tested: 300 nM)
- binding result [6]: no binding (tested: 300 nM)
- binding result [7]: no binding (tested: 300 nM)
- binding result [8]: no binding (tested: 300 nM)
- KD mutant/KD wild type [9]: 0.5 fold

Second part, the binder after the results:

- binding result [1]: no binding (tested: 300 nM)
- binding result [2]: no binding (tested: 300 nM)
- binding result [3]: no binding (tested: 300 nM)
- KD mutant/KD wild type [4]: 10.6 fold
- binding result [5]: no binding (tested: 300 nM)
- KD mutant/KD wild type [6]: 0.5 fold
- binding result [7]: no binding (tested: 300 nM)
- binding result [8]: no binding (tested: 300 nM)
- KD mutant/KD wild type [9]: 0.5 fold
B2: Fab fragment of antibody 15431 (Fab, V domains shown, not shown: a dimerising Fc or GST)
VH: QVQLQQSGPGLVKPSQTLSLTCAISGDSVSSNSAAWNWIRQSPSRGLEWLGRTYYRSKWYNDYAVSVKSRITINPDTSKNQFSLQLNSVTPEDTAVYYCARDDDWNDFDYWGQGTLVTVSS
VL: B1 VL
notes: as for B1

- KD mutant/KD wild type [1]: 1.9 fold
- KD mutant/KD wild type [2]: 0.5 fold
- KD mutant/KD wild type [3]: 0.5 fold
- KD mutant/KD wild type [4]: 1.9 fold
- KD mutant/KD wild type [5]: 0.5 fold
- KD mutant/KD wild type [6]: 0.6 fold
- KD mutant/KD wild type [7]: 7.2 fold
- KD mutant/KD wild type [8]: 0.5 fold
- KD mutant/KD wild type [9]: 2.6 fold
B3: Fab fragment of antibody 15011 (Fab, V domains shown, not shown: a dimerising Fc or GST)
VH: EVQLLESGGGLVQPGGSLRLSCAASGFDFRSYAMMWVRQAPGKGLEWVGGINGEVGGSNTYYAPAVKGRATISRDNSKNTLYLQMNSLRAEDTAVYYCVKGAGACGICNDDIDAWGQGTLVTVSS
VL: SYELTQDPAVSVALGQTVRITCSGAGSYAGSYYYGWHQQKPGQAPVTVIYDNDKRPSNIPDRFSGSSSGNTASLTITGAQAEDEADYYCGSTNDNDDGGLFGSGTKVTVLG
notes: as for B1
